Where no end group is shown, it is not given here. The star is where a group is joined. FITC = O=C1OC2(c3ccc(O)cc3Oc3cc(O)ccc32)c2ccc(NC(=S)*)cc21; βAla = NCCC(=O)O
Assays:
[1] = biological target: NHERF1 PDZ1 (Homo sapiens) (UniProt O14745); conditions: cited from earlier work
[2] = biological target: T1, PTH1R C-terminal peptide (FITC-PTH1Rct) (Homo sapiens); experiment: fluorescence polarization
T1 chain: {FITC-βAla}-PERPPALLQEEWETVM

PTH1R C-terminal peptide C-terminus (from UniProt Q03431)
Kd [1]: 11 µM

B1: NHERF1 PDZ1 1-140 (protein)
chain: MSADAAAGAPLPRLCCLEKGPNGYGFHLHGEKGKLGQYIRLVEPGSPAEKAGLLAGDRLVEVNGENVEKETHQQVVSRIRAALNAVRLLVVDPETDEQLQKLGVQVREELLRAQEAPGQAEPPAAAEVQGAGNENEPREA
Kd [2]: 19 µM

— paper PMC4172209 (2014)
